The record followed here is patent US20040171019.

In this data set the target is T1, Suc-AEPF-pNA peptide substrate.
T1 chain: AEPF

B1: mutant PIN1 PPIase (K77Q/K82Q) (protein)
chain: GSHMGKNGQGEPARVRCSHLLVKHSQSRRPSSWRQEQITRTQEEALELINGYIQKIKSGEEDFESLASQFSDCSSAKARGDLGAFSRGQMQKPFEDASFALRTGEMSGPVFTDSGIHIILRTE
With B1, the Km entry is “The Km for this substrate was much higher than 100 µM ([S]<<Km)”; the “rate (rate constant k of the peptidyl-prolyl isomerase reaction)” value is “both wild type human PIN1 and mutant PIN1 PPIAse, at 0.033 nM with 100 µM Suc-AEPF-pNA, had a rate of 0.2”.
